Experimental data taken from US11214614B2, “LTBP complex-specific inhibitors of TGFβ and uses thereof” (Scholar Rock, Inc., priority 2019, dated 2022).

Tests used:
[1] = target: huLTBP3 proTGFβ1 (Homo sapiens, UniProt P01137+Q9NS15); test: Octet (BLI) binding, IgG captured on AHC tips, antigen at 100 nM; details: Table 9, cycle 3, IgG1-agly; for Hu LTBP3-proTGFβ1 Kon: 1:1 fit; for Hu LTBP3-proTGFβ1 Koff: 5-minute dissociation
Experimental: (§1) Suitable methods for in vitro binding assays to determine the parameters of binding kinetics include Bio-layer Interferometry (BLI)-based assays such as Octet, and surface plasmon resonance (SPR)-based assays, such as Biacore systems (see, for example: biophysics.bioc.cam.ac.uk/wp-content/uploads/2011/02/Biacore_assay_handbook.pdf).
(§2) The affinity of SR-AB10, SR-AB2 and SR-AB13 was measured by Octet assay. The protocol used to measure the affinity of the antibodies to the complexes provided herein is summarized below.
(§3) • 96 well black polypropylene plates • AHC Octet tips (anti-human IgG Fc capture tips) (FortdBio) • 10× kinetics buffer (FortdBio) (diluted to 1× in PBS) • reiner Bio-One 96-Well Half Area Microplates (VWR cat #82050-044) Procedure:
(§4) Notes: The volume within each well during an Octet experiment is 100 uL.
(§5) A shake speed of 1000 rpm is used for all assay steps.
(§6) Pre-Wet Tips: • Biosensors must be pre-wet in 1× kinetics buffer (lx KB) for at least 10 minutes before starting an experiment. This can be done inside the Octet or on the bench.
(§7) Loading: • Tips are baselined in 1× KB for 1 minute before loading. • AHC tips are loaded with antibody at a concentration of 1 μg/mL (˜7 nM) for 3 minutes. A limit is set so that loading will stop when any one sensor reaches a response of 1 nanometer. • Tips are baselined in buffer for 1 minute after loading. The antibody should not dissociate from the tips during this time.
(§8) Antigen Association: • TGFβ1 in complex with various presentation molecules was associated to the immobilized antibodies at a single concentration of 100 nM in 1× KB.
(§9) Antibody Dissociation: • Dissociation in 1×KB was performed for 3 minutes.
(§10) Data Analysis using ForteBio Data analysis software 8.2: • Processing: align Y axis to last 5 seconds of baseline, perform inter-step correction with align to dissociation, and perform Savitzky-Golay filtering. • Analysis: 1:1 fitting model is utilized. Fitting is local and full. […] Results:
(§11) LTBP complex-specific antibodies from the first round of affinity maturation/optimization (SR-AB14, SR-AB16, SR-AB17, SR-AB18, SR-AB19) were selected for a second round of affinity maturation/optimization (i.e., CDR-H3 mutagenesis as described herein) and particular progeny antibodies (SR-AB20, SR-AB21, SR-AB22, SR-AB23, SR-AB24, SR-AB25, SR-AB26, SR-AB27, SR-AB28, and SR-AB29) were assessed for their ability to bind various proTGFβl constructs. Binding affinities of the optimized antibodies were measured by Octet against human LTBP1-proTGFβI, human LTBP3-proTGFb1, mouse LTBP1-proTGFβ1, mouse LTBP3-proTGFb1, and GARP-proTGFβl complexes, essentially as described in Example 6. In brief, test antibodies were immobilized to the surface of anti-human Fc capture biosensors (AHC) (ForteBio®) and binding was then tested against the various TGFβ1 complexes at a single concentration of 100 nM to assess binding affinities. The antigens were allowed to associate for 3 minutes followed by a 5-minute dissociation. Kinetics buffer (ForteBio®) was used throughout the experiment, and KD was determined using a 1:1 fitting model for each antibody antigen pair.
(§12) Binding affinities of the optimized antibodies were measured by Octet against human LTBP1-proTGFβ1, human LTBP3-proTGFβ1, mouse LTBP1-proTGFβ1, mouse LTBP3-proTGFβ1, and GARP-proTGFβ1 complexes, essentially as described in Example 6. In brief, test antibodies were immobilized to the surface of anti-human Fc capture biosensors (AHC) (ForteBio®) and binding was then tested against the various TGFβ1 complexes at a single concentration of 100 nM to assess binding affinities. The antigens were allowed to associate for 3 minutes followed by a 5-minute dissociation. Kinetics buffer (ForteBio®) was used throughout the experiment, and KD was determined using a 1:1 fitting model for each antibody antigen pair.

[2] = target: huGARP proTGFβ1 (Homo sapiens, UniProt P01137); test: as above; details: N.B. = non-binder under conditions of this assay; for ForteBio IgG KD Hu GARP-proTGFβ1 (M) Avid: Table 9, cycle 3, IgG1-agly, 1:1 fit; for ForteBio IgG KD Hu GARP-proTGFβ1 in solution (M) Avid: Table 10, same assay conditions as Table 9
Experimental: as §1, §2, §3, §4, §5, §6, §7, §8, §9, §10, §11
as §12, with “pair. […]” for “pair.”

[3] = target: huLTBP1 proTGFβ1 (Homo sapiens, UniProt P01137+Q14766); test: as above; details: Table 9, cycle 3, IgG1-agly
Experimental: as §1, §2, §3, §4, §5, §6, §7, §8, §9, §10, §11
as §12, with “pair. […]” for “pair.”

[4] = test system: proTGFβ1 presented by endogenous LTBP1/3 in LN229 cells; test: Endogenous LTBP caga assay: LN229 cells transfected with human proTGFβ1 only, CAGA12 luciferase reporter cells; assay type: cell-based; details: Table 20: protocol of Example 10 with Fabs (RefAb also as hIgG4), assay format not stated
Sequence of proTGFβ1 presented by endogenous LTBP1/3 in LN229 cells (P01137 30-390): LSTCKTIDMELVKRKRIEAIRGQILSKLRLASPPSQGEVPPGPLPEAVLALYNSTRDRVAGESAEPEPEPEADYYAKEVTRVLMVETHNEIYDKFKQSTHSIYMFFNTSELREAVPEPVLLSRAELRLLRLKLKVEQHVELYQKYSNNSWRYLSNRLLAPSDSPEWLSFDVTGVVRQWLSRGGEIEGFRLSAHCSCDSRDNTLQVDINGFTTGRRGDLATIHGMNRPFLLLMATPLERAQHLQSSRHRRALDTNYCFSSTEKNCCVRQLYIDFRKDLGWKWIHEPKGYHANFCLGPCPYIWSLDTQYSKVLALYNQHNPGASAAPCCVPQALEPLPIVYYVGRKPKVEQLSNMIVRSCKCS

Sequence of huGARP proTGFβ1 (P01137 30-390): as above
Sequence of huGARP proTGFβ1 (Q14392 18-627 partner limits assumed): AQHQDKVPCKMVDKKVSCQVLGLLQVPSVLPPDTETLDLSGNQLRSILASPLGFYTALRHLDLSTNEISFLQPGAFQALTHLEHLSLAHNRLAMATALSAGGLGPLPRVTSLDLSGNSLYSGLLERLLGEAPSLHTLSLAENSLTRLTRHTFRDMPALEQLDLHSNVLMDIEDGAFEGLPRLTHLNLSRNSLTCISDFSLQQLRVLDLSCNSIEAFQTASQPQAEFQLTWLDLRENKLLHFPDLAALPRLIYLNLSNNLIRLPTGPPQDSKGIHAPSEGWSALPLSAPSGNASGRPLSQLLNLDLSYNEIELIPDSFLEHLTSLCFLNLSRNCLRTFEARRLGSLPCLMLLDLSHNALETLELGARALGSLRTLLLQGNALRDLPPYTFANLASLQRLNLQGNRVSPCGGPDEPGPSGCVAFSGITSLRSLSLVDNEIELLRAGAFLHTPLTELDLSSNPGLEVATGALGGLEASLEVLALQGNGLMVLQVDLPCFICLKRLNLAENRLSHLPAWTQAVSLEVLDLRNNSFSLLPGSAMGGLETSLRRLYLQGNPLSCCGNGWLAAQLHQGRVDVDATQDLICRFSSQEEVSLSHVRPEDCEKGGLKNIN
Sequence of huLTBP3 proTGFβ1 (P01137 30-390): as the sequence (P01137 30-390) above
Sequence of huLTBP3 proTGFβ1 (Q9NS15 44-1303): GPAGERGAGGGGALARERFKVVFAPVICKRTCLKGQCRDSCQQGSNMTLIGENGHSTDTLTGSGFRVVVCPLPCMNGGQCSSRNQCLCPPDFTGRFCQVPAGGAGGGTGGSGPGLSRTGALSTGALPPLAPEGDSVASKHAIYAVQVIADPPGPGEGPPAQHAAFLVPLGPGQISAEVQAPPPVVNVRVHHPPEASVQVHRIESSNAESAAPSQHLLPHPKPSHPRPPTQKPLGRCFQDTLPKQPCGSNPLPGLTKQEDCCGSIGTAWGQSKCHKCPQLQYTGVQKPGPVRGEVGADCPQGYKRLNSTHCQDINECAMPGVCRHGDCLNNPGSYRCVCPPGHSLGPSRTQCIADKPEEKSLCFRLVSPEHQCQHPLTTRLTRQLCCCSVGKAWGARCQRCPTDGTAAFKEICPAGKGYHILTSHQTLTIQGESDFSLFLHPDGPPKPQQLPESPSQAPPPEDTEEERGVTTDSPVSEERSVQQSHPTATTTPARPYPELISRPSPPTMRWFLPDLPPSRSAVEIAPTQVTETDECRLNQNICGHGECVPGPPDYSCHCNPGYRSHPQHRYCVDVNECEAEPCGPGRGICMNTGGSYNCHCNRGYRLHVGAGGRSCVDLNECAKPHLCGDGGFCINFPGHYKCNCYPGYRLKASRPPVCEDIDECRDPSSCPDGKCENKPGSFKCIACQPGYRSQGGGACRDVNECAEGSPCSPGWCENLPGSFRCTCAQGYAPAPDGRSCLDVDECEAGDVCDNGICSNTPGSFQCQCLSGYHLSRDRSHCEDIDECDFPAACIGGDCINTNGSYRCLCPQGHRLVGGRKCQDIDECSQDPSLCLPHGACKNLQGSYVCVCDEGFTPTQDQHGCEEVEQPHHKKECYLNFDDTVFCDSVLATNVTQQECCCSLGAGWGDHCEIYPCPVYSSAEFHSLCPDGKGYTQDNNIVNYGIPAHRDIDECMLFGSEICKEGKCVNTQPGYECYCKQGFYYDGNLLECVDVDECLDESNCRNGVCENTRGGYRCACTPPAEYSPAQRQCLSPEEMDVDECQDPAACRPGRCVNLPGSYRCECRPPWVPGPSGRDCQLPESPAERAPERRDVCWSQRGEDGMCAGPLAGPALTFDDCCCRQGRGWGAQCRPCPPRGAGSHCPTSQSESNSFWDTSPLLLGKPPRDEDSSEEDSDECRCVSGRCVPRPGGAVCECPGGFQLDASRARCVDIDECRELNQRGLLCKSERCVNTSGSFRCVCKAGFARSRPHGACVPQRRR
Sequence of huLTBP1 proTGFβ1 (P01137 30-390): as the sequence (P01137 30-390) above
Sequence of huLTBP1 proTGFβ1 (Q14766 347-1721 limits assumed): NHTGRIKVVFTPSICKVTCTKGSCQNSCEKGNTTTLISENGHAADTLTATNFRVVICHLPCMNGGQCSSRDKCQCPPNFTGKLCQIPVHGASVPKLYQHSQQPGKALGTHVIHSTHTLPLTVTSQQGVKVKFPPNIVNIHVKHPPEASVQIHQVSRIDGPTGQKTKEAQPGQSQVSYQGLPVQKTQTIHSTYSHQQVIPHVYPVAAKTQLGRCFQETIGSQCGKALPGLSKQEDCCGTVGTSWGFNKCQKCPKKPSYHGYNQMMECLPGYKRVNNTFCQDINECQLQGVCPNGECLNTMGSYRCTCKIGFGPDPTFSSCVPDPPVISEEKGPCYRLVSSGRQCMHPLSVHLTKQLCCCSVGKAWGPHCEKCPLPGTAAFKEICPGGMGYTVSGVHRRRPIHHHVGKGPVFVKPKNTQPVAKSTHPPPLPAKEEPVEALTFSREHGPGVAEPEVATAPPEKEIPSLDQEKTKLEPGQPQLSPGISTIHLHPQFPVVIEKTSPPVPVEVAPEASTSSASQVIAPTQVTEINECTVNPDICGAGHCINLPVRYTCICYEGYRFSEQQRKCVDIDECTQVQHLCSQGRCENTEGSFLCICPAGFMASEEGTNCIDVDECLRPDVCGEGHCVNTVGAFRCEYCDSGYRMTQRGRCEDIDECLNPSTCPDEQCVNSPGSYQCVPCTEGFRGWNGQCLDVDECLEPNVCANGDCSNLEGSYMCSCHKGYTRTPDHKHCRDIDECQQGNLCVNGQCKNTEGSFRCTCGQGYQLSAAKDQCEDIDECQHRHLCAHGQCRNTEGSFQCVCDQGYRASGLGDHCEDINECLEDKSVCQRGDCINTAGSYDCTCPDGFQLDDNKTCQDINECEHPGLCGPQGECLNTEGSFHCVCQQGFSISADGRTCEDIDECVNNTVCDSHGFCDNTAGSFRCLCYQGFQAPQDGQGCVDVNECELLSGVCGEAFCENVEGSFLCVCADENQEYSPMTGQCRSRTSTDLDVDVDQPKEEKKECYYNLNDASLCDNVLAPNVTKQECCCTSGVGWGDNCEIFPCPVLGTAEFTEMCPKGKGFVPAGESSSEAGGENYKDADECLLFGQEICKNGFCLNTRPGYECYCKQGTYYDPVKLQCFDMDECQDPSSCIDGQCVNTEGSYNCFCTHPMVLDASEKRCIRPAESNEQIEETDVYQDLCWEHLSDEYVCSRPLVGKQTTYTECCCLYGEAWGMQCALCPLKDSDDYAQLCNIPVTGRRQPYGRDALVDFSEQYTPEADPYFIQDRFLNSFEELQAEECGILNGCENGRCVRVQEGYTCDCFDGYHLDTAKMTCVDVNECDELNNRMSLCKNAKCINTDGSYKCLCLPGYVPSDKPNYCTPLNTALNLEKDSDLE

Molecule	IC50 [4] [nM]	further results
SR-AB40: cycle 3 light chain-optimized antibody, lineage SR-AB23; CDRs SEQ ID NO: 154-159 (antibody, V domains shown) VH: QVQLVESGGGVVQPGRSLRLSCAASGFTFRSYVMHWVRQAPGKGLEWVAVISHEGSLKYYADSVKGRFTISRDNSKNTLYLQMNSLRAEDTAVYYCARPRIAARRGGFGYWGQGTLVTVSS VL: NFMLTQPHSVSESPGKTVTISCTRSSGNIDNNYVQWYQQRPGSSPTTVIYEDNQRPSGVPDRFSGSIDSSSNSASLTISGLKTEDEADYYCQSYDYSNQGVVFGGGTKLTVL	–	Hu LTBP3-proTGFβ1 Kon [1]: 182000 M⁻¹ s⁻¹; Hu LTBP3-proTGFβ1 Koff [1]: 6.07e-05 s⁻¹; ForteBio IgG KD Hu GARP-proTGFβ1 (M) Avid [2]: N.B.; ForteBio IgG KD Hu GARP-proTGFβ1 in solution (M) Avid [2]: N.B.; Hu LTBP1-proTGFβ1 Kon ([3]; 1:1 fit): 150000 M⁻¹ s⁻¹; Hu LTBP1-proTGFβ1 Koff ([3]; 5-minute dissociation): 6e-05 s⁻¹
SR-AB64: cycle 3 light chain-optimized antibody, lineage SR-AB26; CDRs SEQ ID NO: 298-303 (antibody, V domains shown) VH: QLQLQESGPGLVKPSETLSLTCTVSGGSIRSSSYYWGWIRQPPGKGLEWIGSISYSATTYYNPSLKSRVTISVDTSKNQFSLKLSSVTAADTAVYYCAGDPSYDSIAGMQVWGQGTTVTVSS VL: DIQMTQSPSSLSASVGDRVTITCRASQSISYYLNWYQQKPGKAPKLLIYSASSRQSGVPSRFSGSGSGTDFTLTISSLQPEDFATYYCQQGFDFPLTFGGGTKVEIK	–	Hu LTBP3-proTGFβ1 Kon [1]: 195000 M⁻¹ s⁻¹; Hu LTBP3-proTGFβ1 Koff [1]: 9.18e-05 s⁻¹; ForteBio IgG KD Hu GARP-proTGFβ1 (M) Avid [2]: N.B.; ForteBio IgG KD Hu GARP-proTGFβ1 in solution (M) Avid [2]: N.B.
SR-AB54 Fab (antibody, V domains shown) VH: QVQLVESGGGVVQPGRSLRLSCAASGFTFRSYVMHWVRQAPGKGLEWVAVISHEGSGKYYADSVKGRFTISRDNSKNTLYLQMNSLRAEDTAVYYCALPRIAARRGGFGSWGQGTLVTVSS VL: NFMLTQPHSVSESPGKTVTISCTRSSGNIDYNYVQWYQQRPGSSPTTVIYEDNVRPSGVPDRFSGSIDSSSNSASLTISGLKTEDEADYYCQSYDSDNQRVVFGGGTKLTVL	5.87	–
SR-AB23 Fab (antibody, V domains shown) VH: QVQLVESGGGVVQPGRSLRLSCAASGFTFRSYVMHWVRQAPGKGLEWVAVISHEGSLKYYADSVKGRFTISRDNSKNTLYLQMNSLRAEDTAVYYCARPRIAARRGGFGYWGQGTLVTVSS VL: NFMLTQPHSVSESPGKTVTISCTRSSGNIDNNYVQWYQQRPGSSPTTVIYEDNQRPSGVPDRFSGSIDSSSNSASLTISGLKTEDEADYYCQSYDSDNQGVVFGGGTKLTVL	8.53	–
SR-AB50 Fab (antibody, V domains shown) VH: QVQLVESGGGVVQPGRSLRLSCAASGFTFRSYVMHWVRQAPGKGLEWVAVISHEGSGKYYADSVKGRFTISRDNSKNTLYLQMNSLRAEDTAVYYCARPRIAARRGGFGTWGQGTLVTVSS VL: NFMLTQPHSVSESPGKTVTISCTRSSGNIDYNYVQWYQQRPGSSPTTVIYEDNVRPSGVPDRFSGSIDSSSNSASLTISGLKTEDEADYYCQSYDSDNQRVVFGGGTKLTVL	11	–

The next lines start with results.

IC50 [4] [nM]	Molecule	further results
1.02	SR-AB49 Fab (antibody, V domains shown) VH: QVQLVESGGGVVQPGRSLRLSCAASGFTFRSYVMHWVRQAPGKGLEWVAVISHEGSGKYYADSVKGRFTISRDNSKNTLYLQMNSLRAEDTAVYYCARPRIAARRGGFGSWGQGTLVTVSS VL: NFMLTQPHSVSESPGKTVTISCTRSSGNIDYNYVQWYQQRPGSSPTTVIYEDNVRPSGVPDRFSGSIDSSSNSASLTISGLKTEDEADYYCQGYDWDTQGVVFGGGTKLTVL	–
1.18	SR-AB53 Fab (antibody, V domains shown) VH: QVQLVESGGGVVQPGRSLRLSCAASGFTFRSYVMHWVRQAPGKGLEWVAVISHEGSGKYYADSVKGRFTISRDNSKNTLYLQMNSLRAEDTAVYYCARPRIAARRGGFGTWGQGTLVTVSS VL: NFMLTQPHSVSESPGKTVTISCTRSSGNIDYNYVQWYQQRPGSSPTTVIYEDNVRPSGVPDRFSGSIDSSSNSASLTISGLKTEDEADYYCQGYDWDTQGVVFGGGTKLTVL	–
4.86	SR-AB58 Fab (antibody, V domains shown) VH: QVQLVESGGGVVQPGRSLRLSCAASGFTFRSYVMHWVRQAPGKGLEWVAVISHEGSGKYYADSVKGRFTISRDNSKNTLYLQMNSLRAEDTAVYYCALPRIAARRGGFGTWGQGTLVTVSS VL: NFMLTQPHSVSESPGKTVTISCTRSSGNIDYNYVQWYQQRPGSSPTTVIYEDNVRPSGVPDRFSGSIDSSSNSASLTISGLKTEDEADYYCQSYDSDNQRVVFGGGTKLTVL	–
0.186	SR-AB47 Fab (antibody, V domains shown) VH: QVQLVESGGGVVQPGRSLRLSCAASGFTFRSYVMHWVRQAPGKGLEWVAVISHEGSGKYYADSVKGRFTISRDNSKNTLYLQMNSLRAEDTAVYYCARPRIAARRGGFGSWGQGTLVTVSS VL: NFMLTQPHSVSESPGKTVTISCTRSSGNIDYNYVQWYQQRPGSSPTTVIYEDNVRPSGVPDRFSGSIDSSSNSASLTISGLKTEDEADYYCQSYDYDNQAVVFGGGTKLTVL	–
0.195	SR-AB59 Fab (antibody, V domains shown) VH: QVQLVESGGGVVQPGRSLRLSCAASGFTFRSYVMHWVRQAPGKGLEWVAVISHEGSGKYYADSVKGRFTISRDNSKNTLYLQMNSLRAEDTAVYYCALPRIAARRGGFGTWGQGTLVTVSS VL: NFMLTQPHSVSESPGKTVTISCTRSSGNIDYNYVQWYQQRPGSSPTTVIYEDNVRPSGVPDRFSGSIDSSSNSASLTISGLKTEDEADYYCQSYDYDNQAVVFGGGTKLTVL	–
0.439	SR-Ab56 Fab (antibody, V domains shown) VH: QVQLVESGGGVVQPGRSLRLSCAASGFTFRSYVMHWVRQAPGKGLEWVAVISHEGSGKYYADSVKGRFTISRDNSKNTLYLQMNSLRAEDTAVYYCALPRIAARRGGFGSWGQGTLVTVSS VL: NFMLTQPHSVSESPGKTVTISCTRSSGNIDYNYVQWYQQRPGSSPTTVIYEDNVRPSGVPDRFSGSIDSSSNSASLTISGLKTEDEADYYCQSYDYDTQGVVFGGGTKLTVL	–
0.459	SR-AB52 Fab (antibody, V domains shown) VH: QVQLVESGGGVVQPGRSLRLSCAASGFTFRSYVMHWVRQAPGKGLEWVAVISHEGSGKYYADSVKGRFTISRDNSKNTLYLQMNSLRAEDTAVYYCARPRIAARRGGFGTWGQGTLVTVSS VL: NFMLTQPHSVSESPGKTVTISCTRSSGNIDYNYVQWYQQRPGSSPTTVIYEDNVRPSGVPDRFSGSIDSSSNSASLTISGLKTEDEADYYCQSYDYDTQGVVFGGGTKLTVL	–
